Results on 1 substance are retold here after patent US20020127645A1.

This assay deals with dimeric mouse-human chimeric IgA1 specific for the hapten dansyl (human) (UniProt P01876). The experiment in a line: densitometry of secreted proteins after immunoprecipitation and SDS-PAGE.
Chain of UniProt P01876 (P01876 other isoform, or with tags, fused parts or gaps mutant, chain 1 of 2, other chains not shown): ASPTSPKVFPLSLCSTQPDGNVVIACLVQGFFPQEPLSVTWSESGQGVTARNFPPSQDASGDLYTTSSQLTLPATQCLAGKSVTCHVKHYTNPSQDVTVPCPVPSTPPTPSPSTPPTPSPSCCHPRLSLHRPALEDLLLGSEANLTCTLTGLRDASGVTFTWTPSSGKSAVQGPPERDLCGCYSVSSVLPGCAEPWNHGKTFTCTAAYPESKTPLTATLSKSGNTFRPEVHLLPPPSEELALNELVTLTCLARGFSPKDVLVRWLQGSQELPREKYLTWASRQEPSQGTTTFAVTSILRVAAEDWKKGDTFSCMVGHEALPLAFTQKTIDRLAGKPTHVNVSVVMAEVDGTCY

As to “human secretory component (SC), ectoplasmic domain of the human polymeric Ig receptor (pIgR) ending at Glu589 (from UniProt P01833 19-607)”, the α chains per molecule of SC (stoichiometry) (α chains per SC) is 4.
